The results in this text go back to patent US20180072810A1 (published 2018).

This test concerns the target T1, cynomolgus PD-1 Fc fusion (cynomolgus monkey, UniProt B0LAJ3 25-170).
T1 construct: also called Cyno PD-1 (ELISA)
As to the kind of experiment: ELISA on plate-bound cynomolgus PD-1 Fc fusion. Background: An ELISA detects its analyte on a solid surface through an enzyme-linked reagent.

T1 sequence (B0LAJ3 entry or part of it limits assumed, form in doubt): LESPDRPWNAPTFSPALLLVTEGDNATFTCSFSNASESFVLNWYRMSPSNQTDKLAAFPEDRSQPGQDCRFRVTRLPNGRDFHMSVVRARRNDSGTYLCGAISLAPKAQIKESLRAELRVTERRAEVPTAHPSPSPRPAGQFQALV

B1: Nivolumab (antibody, V domains shown)
VH: QVQLVESGGGVVQPGRSLRLDCKASGITFSNSGMHWVRQAPGKGLEWVAVIWYDGSKRYYADSVKGRFTISRDNSKNTLFLQMNSLRAEDTAVYYCATNDDYWGQGTLVTVSS
VL: EIVLTQSPATLSLSPGERATLSCRASQSVSSYLAWYQQKPGQAPRLLIYDASNRATGIPARFSGSGSGTDFTLTISSLEPEDFAVYYCQQSSNWPRTFGQGTKVEIK
For B1, a half-maximal effect (EC50) was put at 0.07 nM.
